Biological target: CD2 (human) (UniProt P06729)
Test: dTomato EVs from cells stably expressing the codon-optimized scFv on Jurkat T cells, flow cytometry

Sequence of UniProt P06729 (P06729 25-351): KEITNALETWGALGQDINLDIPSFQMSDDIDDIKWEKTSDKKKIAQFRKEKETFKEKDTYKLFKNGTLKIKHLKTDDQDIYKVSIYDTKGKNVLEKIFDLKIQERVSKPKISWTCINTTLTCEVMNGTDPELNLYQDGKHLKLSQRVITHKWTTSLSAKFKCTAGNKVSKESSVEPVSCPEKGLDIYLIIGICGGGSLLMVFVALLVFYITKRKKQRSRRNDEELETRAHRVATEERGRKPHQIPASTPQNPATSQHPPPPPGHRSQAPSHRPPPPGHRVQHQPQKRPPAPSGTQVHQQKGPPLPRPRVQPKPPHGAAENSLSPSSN

fold increase of EV binding over non-targeted EVs: > 100 fold
B1: anti-CD2 scFv displayed on EVs via the PDGFR transmembrane domain, helical (α-helix) linker (scFv)
scFv: DYKDHDGDYKDHDIDYKDDDDKNIMMTQSPSSLAVSAGEKVTMTCKSSQSVLYSSNQKNYLAWYQQKPGQSPKLLIYWASTRESGVPDRFTGSGSGTDFTLTISSVQPEDLAVYYCHQYLSSHTFGGGTKLEIKRGGGGSGGGGSGGGGSQLQQPGAELVRPGSSVKLSCKASGYTFTRYWIHWVKQRPIQGLEWIGNIDPSDSETHYNQKFKDKATLTVDKSSGTAYMQLSSLTSEDSAVYYCATEDLYYAMEYWGQGTSVTVSSDQSNSEEAKKEEAKKEEAKKSNSAVGQDTQEVIVVPHSLPFKVVVISAILALVVLTIISLIILIMLWQKKPR

From patent US20250312479A1
